Source: the supplement of paper PMC10567573

B1: PPP2R2B (parent)
chain: PSNRSFFSEIISSISDVKFSHSGR
B2: NCF4 (parent)
chain: FVKILKDFPEEDDPTNWLRCYYYE

Variants of: B1
Test: protein stability index of a GFP-peptide fusion (GPS, HEK-293T) (PSI 1-6); higher = more stable
Conditions: c terminus: a fixed tail appended
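Note: lentivirally expressed fusions sorted by FACS into six bins by GFP to DsRed ratio, PSI derived from sequencing read proportions per bin multiplied by bin number.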

Protein stability index, by site and new letter:
R4: F 1.81 | V 2.47 | K 2.54 | Q 2.66 | H 2.1 | E 2.81 | G 3.02 | D 3.49 | L 2.41 | M 2.1 | N 2.2 | T 2.48 | A 2.64 | Y 1.86 | W 1.4 | I 2.79 | C 1.83 | P 2.8 | S 2.8
S2: Y 2.64 | H 2.44 | E 2.55 | A 2.54 | I 2.02 | C 2.4 | W 2.18 | N 2.29 | D 2.85 | F 1.99 | L 1.95 | G 2.66 | R 2.61 | K 1.92 | Q 2.45 | P 2.65 | T 2.44 | M 2.17 | V 2.29
F7: H 3.32 | R 3.32 | Q 3.64 | L 2.25 | D 3.56 | E 3.69 | N 3.48 | M 2.79 | T 2.79 | V 2.24 | S 4.24 | G 3.42 | I 2.87 | C 2.83 | Y 2.51 | W 2.41 | K 3.26 | A 3.38 | P 2.87
F6: K 2.99 | C 2.38 | L 2.39 | A 3.05 | T 3.4 | I 2.81 | E 3.22 | S 3.07 | N 2.9 | R 3.02 | D 3.53 | V 2.66 | P 3.02 | Y 2.52 | W 2.32 | Q 2.89 | H 2.99 | M 2.76 | G 3.31
N3: R 2.35 | F 2.06 | M 2.13 | P 2.49 | D 2.32 | T 2.14 | E 2.03 | K 2.12 | W 2.75 | Q 2.4 | S 2.57 | C 2.19 | G 2.19 | L 2.17 | V 1.74 | H 2.72 | Y 2.55 | A 2.27 | I 1.83
E9: A 2.12 | D 2.44 | H 1.99 | N 2.36 | Y 1.95 | G 2.64 | C 2.03 | F 1.63 | S 2.26 | Q 2.31 | R 2.2 | M 1.47 | T 2.17 | K 2.23 | I 3.63 | V 2.15 | P 2.45 | W 1.91 | L 2.58
S8: Q 2.33 | H 2.31 | C 1.7 | R 2.33 | P 2.69 | E 2.57 | F 2.11 | T 2.62 | K 2.36 | I 2.84 | A 1.91 | N 2.44 | Y 1.91 | G 2.41 | D 2.32 | L 2.04 | V 1.52 | W 1.98 | M 2.43
S5: N 2.36 | H 2.91 | L 2.13 | Y 2.04 | W 2.1 | E 2.9 | A 2.31 | R 2.64 | G 2.59 | Q 2.42 | D 2.46 | K 2.17 | T 2.31 | V 1.96 | F 2.54 | P 2.88 | M 2.65 | I 1.91 | C 1.65
P1: W 1.83 | G 2.69 | A 2.19 | T 2.39 | M 2.24 | F 1.89 | H 1.8 | L 2.19 | Q 2.4 | I 2.02 | R 2.34 | D 2.77 | E 2.42 | S 2.21 | N 2.42 | K 2.56 | C 2.05 | V 1.72 | Y 2.95
I10: D 3.13 | E 3.64 | N 3.09 | G 3.39 | L 1.79 | A 3.33 | H 2.98 | F 2.43 | P 3.44 | C 2.91 | K 3.11 | Q 3.06 | M 2.62

Variants of: B2
Test: as above
Conditions: c terminus: a fixed tail appended

Protein stability index: each site, then its substitutions
P14: R 3.25 | F 1.24 | S 2.5 | W 2.21 | T 1.11 | K 1.9 | A 2.72 | V 1.84
P9: I 1.65 | D 1.85 | V 2.21 | M 2.75 | E 1.74
N16: I 1.75 | H 5.27 | K 1.81 | D 1.7 | L 1.64 | F 2.41
D12: G 2.33 | K 1.41 | E 2.04 | M 2.39 | C 2.14 | S 2.4
D13: T 2.72 | S 2.46 | E 2.69 | R 1.66 | I 1.29 | Q 2.12
V2: C 1.95 | M 1.96 | K 2.16 | W 3.35 | G 2.24
R19: W 1.78 | T 2.28 | N 2.83 | F 2.28 | C 1.01 | M 2.31
F1: H 2.7 | Q 2.56 | S 2.55 | C 1.46 | N 2.96
L18: V 2.34 | N 1.86 | Y 1.96 | T 2.24 | G 1.92 | C 1.58 | S 2.15
E10: T 2.6 | S 1.77 | D 1.16 | I 3.14
D7: P 2.49 | W 1.07
K3: Y 1.01 | T 2.48 | S 2.32
E11: S 1.71 | Q 2.98 | D 1.88 | K 1.39
E24: F 2.3 | A 2.33 | R 1.51 | C 3.79 | Y 1.47 | V 2.32 | P 2.12 | Q 2.5 | S 1.98
Y23: C 1.49 | P 3.56 | M 2.06 | K 1.73 | L 1.39 | G 1.96 | E 2.52 | N 1.51 | Q 1.73 | I 1.5
Y22: S 1.38 | V 1.03 | N 1.56 | K 1.61 | T 2.94 | G 2.64
W17: P 1.54 | L 1.74 | Q 1.89 | C 2.55 | H 2.34 | T 1.85 | Y 2.4 | G 1.79 | A 1.93
F8: Q 1.67 | W 3.2 | P 1.68 | V 2.59 | K 1.8
C20: V 1.72 | W 1.5 | Q 2.03 | K 2.32 | H 1.84 | M 2.02
T15: M 2.32 | F 1.79 | S 2.14 | P 2.88 | R 3.22 | Q 2.02 | D 1.79 | C 1.88 | H 1.3
K6: D 1.96 | E 2.5 | F 2.93 | L 1.96 | R 1.17 | I 1.37 | V 3.01 | P 1.56 | M 1.65
I4: G 1.9 | P 2.15 | A 1.61 | D 1.25 | L 2.02 | S 2.7 | K 3.09
Y21: V 2.53 | F 1.91 | M 1.75 | Q 1.93 | G 1.06 | H 2.55 | A 1.1 | K 2.47 | E 1.41
L5: N 1.68 | I 1.6 | A 1.02 | Y 2.23
